The source of these data is patent publication US20060252677A1.

This test deals with NMDA receptor (NMDA receptor/2B subunit and NMDA receptor I) expressed in Xenopus oocytes (human) (UniProt Q13224). As to the kind of experiment: cell-based or functional assay.

Sequence of Protein-X (novel PSD) expressed from injected RNA in Xenopus oocytes (Q5T2T1 whole entry K322R): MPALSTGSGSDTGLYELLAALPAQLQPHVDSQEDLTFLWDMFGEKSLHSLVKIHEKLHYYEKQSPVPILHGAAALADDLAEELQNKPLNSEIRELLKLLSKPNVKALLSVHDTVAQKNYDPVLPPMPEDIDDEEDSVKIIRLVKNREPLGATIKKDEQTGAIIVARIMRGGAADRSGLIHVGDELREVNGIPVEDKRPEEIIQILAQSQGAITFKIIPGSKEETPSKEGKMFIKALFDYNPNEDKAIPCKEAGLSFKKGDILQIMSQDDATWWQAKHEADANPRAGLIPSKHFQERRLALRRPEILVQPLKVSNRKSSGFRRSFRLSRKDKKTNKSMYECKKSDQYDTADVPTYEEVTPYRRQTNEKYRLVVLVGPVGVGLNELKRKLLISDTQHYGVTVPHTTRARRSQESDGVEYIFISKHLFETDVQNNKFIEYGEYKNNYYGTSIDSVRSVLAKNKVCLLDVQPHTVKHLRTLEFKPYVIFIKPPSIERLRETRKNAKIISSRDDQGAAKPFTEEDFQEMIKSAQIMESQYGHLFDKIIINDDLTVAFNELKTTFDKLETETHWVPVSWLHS

In the case of “Protein-X (novel PSD) expressed from injected RNA in Xenopus oocytes (from UniProt Q5T2T1 1-576)”, the Current variation (µA), Average is 0.55 µA; the Current variation (µA), Standard deviation amounted to 0.15 µA; the Current variation (µA), oocyte #1, 1000 µM Glu + 10 µM Gly stood at 0.6 µA; the Current variation (µA), oocyte #2, 1000 µM Glu + 10 µM Gly is 0.81 µA. For the same substance, the Current variation (µA), oocyte #3, 1000 µM Glu + 10 µM Gly was 0.38 µA; the Current variation (µA), oocyte #4, 1000 µM Glu + 10 µM Gly is 0.57 µA; the Current variation (µA), oocyte #5, 1000 µM Glu + 10 µM Gly was 0.41 µA; the Current variation (µA), oocyte #6, 1000 µM Glu + 10 µM Gly was 0.54 µA. Also, the current response to the ligand stimulation, against oocytes expressing PSD-95 with the NMDA receptor worked out at 1.5 times.
